Patent US20050250692A1

Experiments:
[1] = target: acidic pH binding sites of Mv1Lu cells; assay: concentration dependence of 125I-α2M* binding to Mv1Lu cells at pH 5
[2] = target: acidic pH binding sites of PEA-13 cells; assay: competition with 125I-α2M* binding to PEA-13 cells at acidic pH
[3] = target: acidic pH binding sites of Mv1Lu cells; assay: Scatchard plot analysis of 125I-α2M* binding to Mv1Lu cells at pH 5
[4] = target: acidic pH binding sites of MEF cells; assay: competition with 125I-α2M* binding to MEF cells at pH 5.5

B1: α2M activated by methylamine (α2M*) (ligand, human, UniProt P01023 24-1474, looked up)
chain: SVSGKPQYMVLVPSLLHTETTEKGCVLLSYLNETVTVSASLESVRGNRSLFTDLEAENDVLHCVAFAVPKSSSNEEVMFLTVQVKGPTQEFKKRTTVMVKNEDSLVFVQTDKSIYKPGQTVKFRVVSMDENFHPLNELIPLVYIQDPKGNRIAQWQSFQLEGGLKQFSFPLSSEPFQGSYKVVVQKKSGGRTEHPFTVEEFVLPKFEVQVTVPKIITILEEEMNVSVCGLYTYGKPVPGHVTVSICRKYSDASDCHGEDSQAFCEKFSGQLNSHGCFYQQVKTKVFQLKRKEYEMKLHTEAQIQEEGTVVELTGRQSSEITRTITKLSFVKVDSHFRQGIPFFGQVRLVDGKGVPIPNKVIFIRGNEANYYSNATTDEHGLVQFSINTTNVMGTSLTVRVNYKDRSPCYGYQWVSEEHEEAHHTAYLVFSPSKSFVHLEPMSHELPCGHTQTVQAHYILNGGTLLGLKKLSFYYLIMAKGGIVRTGTHGLLVKQEDMKGHFSISIPVKSDIAPVARLLIYAVLPTGDVIGDSAKYDVENCLANKVDLSFSPSQSLPASHAHLRVTAAPQSVCALRAVDQSVLLMKPDAELSASSVYNLLPEKDLTGFPGPLNDQDNEDCINRHNVYINGITYTPVSSTNEKDMYSFLEDMGLKAFTNSKIRKPKMCPQLQQYEMHGPEGLRVGFYESDVMGRGHARLVHVEEPHTETVRKYFPETWIWDLVVVNSAGVAEVGVTVPDTITEWKAGAFCLSEDAGLGISSTASLRAFQPFFVELTMPYSVIRGEAFTLKATVLNYLPKCIRVSVQLEASPAFLAVPVEKEQAPHCICANGRQTVSWAVTPKSLGNVNFTVSAEALESQELCGTEVPSVPEHGRKDTVIKPLLVEPEGLEKETTFNSLLCPSGGEVSEELSLKLPPNVVEESARASVSVLGDILGSAMQNTQNLLQMPYGCGEQNMVLFAPNIYVLDYLNETQQLTPEIKSKAIGYLNTGYQRQLNYKHYDGSYSTFGERYGRNQGNTWLTAFVLKTFAQARAYIFIDEAHITQALIWLSQRQKDNGCFRSSGSLLNNAIKGGVEDEVTLSAYITIALLEIPLTVTHPVVRNALFCLESAWKTAQEGDHGSHVYTKALLAYAFALAGNQDKRKEVLKSLNEEAVKKDNSVHWERPQKPKAPVGHFYEPQAPSAEVEMTSYVLLAYLTAQPAPTSEDLTSATNIVKWITKQQNAQGGFSSTQDTVVALHALSKYGAATFTRTGKAAQVTIQSSGTFSSKFQVDNNNRLLLQQVSLPELPGEYSMKVTGEGCVYLQTSLKYNILPEKEEFPFALGVQTLPQTCDEPKAHTSFQISLSVSYTGSRSASNMAIVDVKMVSGFIPLKPTVKMLERSNHVSRTEVSSNHVLIYLDKVSNQTLSLFFTVLQDVPVRDLKPAIVKVYDYYETDEFAIAEYNAPCSKDLGNA
modifications: activated by methylamine; 125I-labelled where used as tracer
saturating concentration [1]: 120 nM | IC50 [2]: 120 nM | Kd [3]: 51 nM | sites/cell [3]: 1e+06 sites/cell | IC50 [4]: 50 nM
